Reference: patent publication US20050106660A1 (Pieris, published 2005)

How the values were obtained:
[1] = target: T1, bovine serum albumin (BSA, Sigma) (bovine, UniProt P02769 25-607); assay: SPR (BIAcore X), BSA immobilized on CM5 chip, steady state
T1 construct: Immobilized by amine coupling on a CM5 chip (ca. 5000 RU)

hemoglobin (Sigma) [2] = target: T2, hemoglobin (Sigma); assay: not stated there (affinity measured by SPR in Example 5)
T2 construct: Immobilized by amine coupling on a CM5 chip (ca. 5000 RU)
Experimental: (§1) The binding affinity of the anticalin HbgA to hemoglobin was determined by surface plasmon resonance (SPR) using the BIAcore X system (BIACORE). Hemoglobin (100 μg/ml, dissolved in 10 mM maleate, pH 6.0) was immobilized at an amount of ca. 5000 resonance units (RU) to the surface of one flow channel on a CM5 sensor chip (BIACORE) using the amine coupling kit (BIACORE) according to the manufacturer's instructions. Unreacted groups on the biosensor chip surface were blocked with 1 M ethanolamine hydrochloride-NaOH pH 8.5. […] The concentration of HbgA and also of ApoD were determined by absorption at 280 nm using a calculated extinction coefficient of 54600 M⁻¹ cm⁻¹ and 34150 M⁻¹ cm⁻¹, respectively (Gill and von Hippel, Anal. Biochem. 182 (1989), 319-326). […] The binding of HbgA to hemoglobin, immobilized on the sensor chip, was measured by applying each 75 μl of these protein solutions. Steady state resonance values were detected for the channel with the immobilized hemoglobin for each concentration applied. For each measurement the resonance value that was due to buffer effects and simultaneously measured for the second channel of the sensor chip, was subtracted, and the resulting difference value was plotted against the applied concentration. […]

hemoglobin (Sigma) [3] = target: T2, hemoglobin (Sigma); assay: SPR (BIAcore X), hemoglobin immobilized on CM5 chip, steady-state values fitted
Experimental: as §1

T1 sequence (P02769 25-607 limits assumed): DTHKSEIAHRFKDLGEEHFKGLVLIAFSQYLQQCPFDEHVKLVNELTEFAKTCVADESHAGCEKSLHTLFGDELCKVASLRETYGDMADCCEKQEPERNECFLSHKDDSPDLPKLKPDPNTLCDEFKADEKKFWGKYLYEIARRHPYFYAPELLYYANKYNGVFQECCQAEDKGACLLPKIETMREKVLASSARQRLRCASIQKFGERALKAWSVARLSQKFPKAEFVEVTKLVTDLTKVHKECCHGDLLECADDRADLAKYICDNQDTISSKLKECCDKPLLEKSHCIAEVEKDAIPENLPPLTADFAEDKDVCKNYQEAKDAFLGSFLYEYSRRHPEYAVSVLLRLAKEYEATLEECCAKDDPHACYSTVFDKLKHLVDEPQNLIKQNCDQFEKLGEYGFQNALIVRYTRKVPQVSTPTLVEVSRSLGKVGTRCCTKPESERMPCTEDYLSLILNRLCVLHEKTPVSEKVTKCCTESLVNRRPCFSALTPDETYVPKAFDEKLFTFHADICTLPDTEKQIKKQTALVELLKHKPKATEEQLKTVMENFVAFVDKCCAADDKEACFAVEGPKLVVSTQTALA

binding result [1]: no binding
Ka (hemoglobin (Sigma) [2]): > 1e+06 M⁻¹
Kd (hemoglobin (Sigma) [3]): 2200 nM
B1: anticalin HbgA (mutein of human apolipoprotein D), purified, with C-terminal Strep-Tag II (designed binder)
chain: QAFHLGKCPNPPVQENFDVNKYPGRWYEIEKIPQFVWMGRCIQANYSLMENGKIKVLNQFLRITLDVWQIEGEATPVNLTEPAKLEVKEGLGDPSAPYWILATDYENYALVYSCESFLWLFHWDFAWILARNVALPPETVDSLKNILTSNNIDVKKMTVTDQVNCPKLS
notes: The amber codon at position 34 was replaced by a Gln codon; Scaffold carries Leu23Pro, Cys116Ser, Pro133Val, Asn134Ala; also called mutein HbgA; not shown: Strep-Tag II fused to the C-terminus (expression from pApoD10)
